The record followed here is article PMC6470172, “Conformational plasticity in the KcsA potassium channel pore helix revealed by homo-FRET studies” (Scientific Reports, 2019).

Series [1] concerns the molecule itself. Put plainly: SDS-PAGE of the tetramer; 13.5% SDS-PAGE of the detergent-solubilised protein; 20 mM Hepes pH 7 or 10 mM succinic acid pH 4, 5 mM DDM, 200 mM Cs+, Rb+, K+ or Na+, or TBA+.
Series [2] concerns the molecule itself. Put plainly: FRET or BRET; homo-FRET between the W67 residues of the subunits, read by steady-state and time-resolved fluorescence anisotropy; 6 uM protein (monomer based), 5 mM DDM, pH 7 or pH 4, saturating monovalent cations or TBA+, room temperature. A general note: In BRET a luciferase serves as donor, and the signal depends on an acceptor being close.

B1: KcsA W26,68,87,113F quadruple mutant channel (W67 KcsA) (natural protein, S. lividans, UniProt P0A334 1-160, looked up)
chain: MPPMLSGLLARLVKLLLGRHGSALHFRAAGAATVLLVIVLLAGSYLAVLAERGAPGAQLITYPRALWFSVETATTVGYGDLYPVTLFGRLVAVVVMVAGITSFGLVTAALATFFVGREQERRGHFVRHSEKAAEEAYTRTTRALHERFDRLERMLDDNRR
notes: KcsA potassium channel cloned from S. lividans; single Trp (W67) left per subunit; called full-length in the discussion; Homotetramer; also called KcsA W67
Take B1: in series [1], the “stoichiometry N” value worked out at 4.

B2: KcsA W26,68,87,113F E71A mutant channel (W67 E71A KcsA) (natural protein, S. lividans, UniProt P0A334 1-160, looked up)
chain: MPPMLSGLLARLVKLLLGRHGSALHFRAAGAATVLLVIVLLAGSYLAVLAERGAPGAQLITYPRALWFSVATATTVGYGDLYPVTLFGRLVAVVVMVAGITSFGLVTAALATFFVGREQERRGHFVRHSEKAAEEAYTRTTRALHERFDRLERMLDDNRR
notes: KcsA potassium channel cloned from S. lividans; also called E71A W67 KcsA; E71A W67
In the case of B2, the binding result in series [2] is “binds”.

A word on the stoichiometry N: it is a count of units in the complex or per binding partner.
